Experiments:
human CD59 D24A (human) = human CD59 D24A (human) (UniProt P13987); experiment: flow cytometry on CHO cells expressing the CD59 form
[1] = molecular target: human CD59 51A plus 20-23A (human) (UniProt P13987); experiment: as above
human CD59 F42A (human) = human CD59 F42A (human) (UniProt P13987); experiment: as above
human CD59 F23G (human) = human CD59 F23G (human) (UniProt P13987); experiment: as above
[2] = molecular target: human CD59 20A23A (human) (UniProt P13987); experiment: as above
human CD59 20A23A (human), sequence (P13987 other isoform, or with tags, fused parts or gaps): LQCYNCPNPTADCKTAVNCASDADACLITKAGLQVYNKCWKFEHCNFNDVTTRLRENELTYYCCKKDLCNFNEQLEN

human CD59 H44A (human) = human CD59 H44A (human) (UniProt P13987); experiment: as above
human CD59 H44A (human), sequence (P13987 26-102 H69A): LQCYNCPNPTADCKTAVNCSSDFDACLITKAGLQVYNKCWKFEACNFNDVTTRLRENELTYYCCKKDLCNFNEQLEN

human CD59 T52A (human) = human CD59 T52A (human) (UniProt P13987); experiment: as above
human CD59 T52A (human), sequence (P13987 26-102, stated change not applied): as the sequence (P13987 26-102 H69A) above, with A44H counted along it

[3] = molecular target: wild type human CD59, epitope-tagged, GPI-anchored on CHO cells (human) (UniProt P13987); experiment: as above
wild type human CD59, epitope-tagged, GPI-anchored on CHO cells (human), sequence (P13987 26-102 limits assumed): as the sequence (P13987 26-102 H69A) above, with A44H counted along it

human CD59 W40A (human) = human CD59 W40A (human) (UniProt P13987); experiment: as above
human CD59 W40A (human), sequence (P13987 26-102 W65A): as the sequence (P13987 26-102 H69A) above, with W40A, A44H counted along it

[4] = molecular target: C8/C9 (complement components C8 and C9 of normal human serum, in the assembling membrane attack complex) (human) (UniProt P07357); experiment: cell-based or functional assay
C8/C9 (complement components C8 and C9 of normal human serum, in the assembling membrane attack complex) (human), sequence (P07357 31-584 limits assumed, chain 1 of 4): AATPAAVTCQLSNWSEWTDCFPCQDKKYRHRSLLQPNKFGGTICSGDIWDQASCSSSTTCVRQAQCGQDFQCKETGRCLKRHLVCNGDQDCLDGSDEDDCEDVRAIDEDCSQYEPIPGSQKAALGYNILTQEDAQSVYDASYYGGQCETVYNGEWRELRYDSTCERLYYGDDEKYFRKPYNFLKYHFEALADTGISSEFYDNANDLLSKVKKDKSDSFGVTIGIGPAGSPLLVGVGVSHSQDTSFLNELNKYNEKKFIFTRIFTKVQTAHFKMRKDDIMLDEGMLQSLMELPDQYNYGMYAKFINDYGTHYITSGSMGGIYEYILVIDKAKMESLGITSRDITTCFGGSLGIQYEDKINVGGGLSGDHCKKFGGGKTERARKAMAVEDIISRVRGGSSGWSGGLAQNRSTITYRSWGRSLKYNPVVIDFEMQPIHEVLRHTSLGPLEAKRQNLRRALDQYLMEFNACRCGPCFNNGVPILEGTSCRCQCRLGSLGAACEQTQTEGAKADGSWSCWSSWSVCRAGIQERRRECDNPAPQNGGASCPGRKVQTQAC
C8/C9 (complement components C8 and C9 of normal human serum, in the assembling membrane attack complex) (human), sequence (P07358 55-591 limits assumed, chain 2 of 4, further chain): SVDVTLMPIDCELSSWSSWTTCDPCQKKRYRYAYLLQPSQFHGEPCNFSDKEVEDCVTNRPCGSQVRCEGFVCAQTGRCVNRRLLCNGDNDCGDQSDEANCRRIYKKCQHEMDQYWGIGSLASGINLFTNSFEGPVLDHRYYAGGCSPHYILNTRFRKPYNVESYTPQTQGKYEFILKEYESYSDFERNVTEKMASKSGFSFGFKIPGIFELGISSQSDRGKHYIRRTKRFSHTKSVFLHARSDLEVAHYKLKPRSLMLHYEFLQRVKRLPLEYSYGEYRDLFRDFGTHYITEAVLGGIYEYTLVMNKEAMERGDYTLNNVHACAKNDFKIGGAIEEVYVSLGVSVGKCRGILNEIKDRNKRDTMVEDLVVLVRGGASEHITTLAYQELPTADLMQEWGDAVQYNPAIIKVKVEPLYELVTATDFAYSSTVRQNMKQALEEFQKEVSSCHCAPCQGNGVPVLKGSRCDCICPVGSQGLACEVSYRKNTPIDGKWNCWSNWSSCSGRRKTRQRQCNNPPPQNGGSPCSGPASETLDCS
C8/C9 (complement components C8 and C9 of normal human serum, in the assembling membrane attack complex) (human), sequence (P07360 21-202 limits assumed, chain 3 of 4, further chain): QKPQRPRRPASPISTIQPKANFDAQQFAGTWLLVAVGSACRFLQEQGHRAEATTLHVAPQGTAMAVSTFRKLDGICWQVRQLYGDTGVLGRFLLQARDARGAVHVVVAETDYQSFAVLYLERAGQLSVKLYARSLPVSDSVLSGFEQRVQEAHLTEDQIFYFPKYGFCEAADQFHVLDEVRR
C8/C9 (complement components C8 and C9 of normal human serum, in the assembling membrane attack complex) (human), sequence (P02748 22-559 limits assumed, chain 4 of 4, further chain): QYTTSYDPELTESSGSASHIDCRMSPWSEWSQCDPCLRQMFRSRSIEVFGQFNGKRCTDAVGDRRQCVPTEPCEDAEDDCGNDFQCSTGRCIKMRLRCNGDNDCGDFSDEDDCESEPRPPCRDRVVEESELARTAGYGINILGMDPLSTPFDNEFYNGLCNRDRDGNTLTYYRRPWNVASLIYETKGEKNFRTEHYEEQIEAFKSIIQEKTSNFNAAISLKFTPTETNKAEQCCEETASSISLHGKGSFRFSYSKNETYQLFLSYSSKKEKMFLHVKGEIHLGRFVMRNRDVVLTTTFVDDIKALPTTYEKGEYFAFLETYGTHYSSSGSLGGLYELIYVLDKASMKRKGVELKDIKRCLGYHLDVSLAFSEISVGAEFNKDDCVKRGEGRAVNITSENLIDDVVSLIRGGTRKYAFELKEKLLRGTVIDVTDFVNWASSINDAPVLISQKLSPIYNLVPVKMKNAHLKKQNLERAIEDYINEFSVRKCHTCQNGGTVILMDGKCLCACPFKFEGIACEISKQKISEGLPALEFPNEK

human CD59 9R (human) = human CD59 9R (human) (UniProt P13987); experiment: flow cytometry on CHO cells expressing the CD59 form
human CD59 9R (human), sequence (P13987 26-102): as the sequence (P13987 26-102 H69A) above, with A44H counted along it

human CD59 5R (human) = human CD59 5R (human) (UniProt P13987); experiment: as above
human CD59 5R (human), sequence (P13987 26-102): as the sequence (P13987 26-102 H69A) above, with A44H counted along it

human CD59 D24A (human), sequence (P13987 26-102 D49A): as the sequence (P13987 26-102 H69A) above, with D24A, A44H counted along it
human CD59 F23G (human), sequence (P13987 26-102 F48G): as the sequence (P13987 26-102 H69A) above, with F23G, A44H counted along it
human CD59 51A plus 20-23A (human), sequence (P13987 other isoform, or with tags, fused parts or gaps): as the sequence (P13987 26-102 H69A) above, with S20A, S21A, D22A, F23A, A44H, T51A counted along it
human CD59 F42A (human), sequence (P13987 26-102 F67A): as the sequence (P13987 26-102 H69A) above, with F42A, A44H counted along it

Substance	percent of relative mean fluorescence compared to wt CD59 (human CD59 D24A (human)) [%]	percent of relative mean fluorescence compared to wt CD59 [1] [%]	percent of relative mean fluorescence compared to wt CD59 (human CD59 F42A (human)) [%]	percent of relative mean fluorescence compared to wt CD59 (human CD59 F23G (human)) [%]	percent of relative mean fluorescence compared to wt CD59 [2] [%]	percent of relative mean fluorescence compared to wt CD59 (human CD59 H44A (human)) [%]	percent of relative mean fluorescence compared to wt CD59 (human CD59 T52A (human)) [%]	percent of relative mean fluorescence compared to wt CD59 [3] [%]	percent of relative mean fluorescence compared to wt CD59 (human CD59 W40A (human)) [%]	increase in inhibitory activity compared to the wt protein [4] [% increase]	inhibitory activity relative to the single mutant T29A [4]	percent of relative mean fluorescence compared to wt CD59 (human CD59 9R (human)) [%]	percent of relative mean fluorescence compared to wt CD59 (human CD59 5R (human)) [%]
anti-CD59 mAb MEM43 (antibody)	3.5	92.3	99.7	98.8	98.1	88.8	99.2	100	6.2				
human CD59 51A20A (from UniProt P13987 26-102)										165	2 fold of T29A		
anti-CD59 mAb YTH53.1 (antibody)	5	18.3	99.8	99.3	35.7	58.7	99.3	100	1			100	47.9
anti-CD59 mAb MEM43.5 (antibody)	1.9	98.1	99.9	98.9	97.7	85.9	99.2	100	0.7			98.4	8.2

From patent US20100036095A1
